Experimental findings from patent US20110142761A1 (AbbVie / Abbott, published 2011) are described below.

Positions count from the first letter of the chain named.

Experiment [1] deals with T1, human IL-1β (human, UniProt P01584 117-269). In words: cell-based or functional assay.
Experiment [2] has as its target T1, human IL-1β. In words: ELISA; antibody captured on anti-human Fc, biotinylated human IL-1β titrated. How it is done:
To determine if anti-IL-1β mAbs bind to human IL-1β, ELISA plates (Nunc, MaxiSorp, Rochester, N.Y.) were incubated overnight at 4° C. with anti-human Fc antibody diluted in Pierce Coat buffer at 2 μg/ml (Jackson Immunoresearch, West Grove, Pa.). Plates were washed five times in washing buffer (PBS containing 0.05% Tween 20), and blocked for 1 hour at 25° C. with 200 μl per well superblock blocking buffer (Thermo scientific, #37515). Blocking buffer was removed by tapping plates, and 2 μg/ml of each antibody in PBS containing 10% superblock, 0.5% tween-20 was added to the wells at 100 μl per well and incubated at 25° C. for 1 hour. The wells were washed five times in 1×PBST, and 1 μg/ml biotinylated antigen was titrated at 1:6 serial dilutions (for a range of μg to pg in PBS containing 10% superblock, 0.05% tween 20). Each dilution of antigen was then added to the plates and incubated for 1 hour at 25° C. The wells were washed five times in 1×PBST and incubated for 1 hour at 25° C. with polyHRP streptavidin (KPL #474-3000, Gaithersburg, Md.). The wells were washed five times in 1×PBST, and 100 μl of ULTRA-TMB ELISA (Pierce, Rockford, Ill.) were added per well. Following color development the reaction was stopped with 1N HCL and absorbance at 450 nm was measured. The results are shown in Table 9, and the numerical value indicating binding of human anti-IL-1β antibodies to human IL-1β.
Background: An ELISA detects its analyte on a solid surface through an enzyme-linked reagent.

Experiment [3] deals with T1, human IL-1β. As to the kind of experiment: SPR (Biacore 3000), antibody captured, human IL-1β as analyte, 25 C. How it is done: The BIACORE® assay (Biacore, Inc., Piscataway, N.J.) determines the affinity of antibodies with kinetic measurements of on-, off-rate constants. Binding of antibodies to recombinant purified human IL-1β was determined by surface plasmon resonance-based measurements with a Biacore™ 3000 instrument (Biacore™ AB, Uppsala, Sweden) using running HBS-EP (10 mM HEPES [pH 7.4], 150 mM NaCl, 3 mM EDTA, and 0.005% surfactant P20) at 25° C. All chemicals were obtained from Biacore® AB (Uppsala, Sweden) unless otherwise stated. Approximately 5,000 RU of goat anti-mouse IgG, (Fcγ), fragment specific polyclonal antibody (Pierce Biotechnology Inc, Rockford, Ill.) diluted in 10 mM sodium acetate (pH 4.5) was directly immobilized across a CM5 research grade biosensor chip using a standard amine coupling kit according to manufacturer's instructions and procedures at 25 μg/ml. Unreacted moieties on the biosensor surface were blocked with ethanolamine. Modified carboxymethyl dextran surface in flowcell 2 and 4 was used as a reaction surface. Unmodified carboxymethyl dextran without goat anti-mouse IgG in flow cell 1 and 3 was used as the reference surface. For kinetic analysis, rate equations derived from the 1:1 Langmuir binding model were fitted simultaneously to association and dissociation phases of all eight injections (using global fit analysis) with the use of Biaevaluation 4.0.1 software. Purified antibodies were diluted in HEPES-buffered saline for capture across goat anti-mouse IgG specific reaction surfaces. Mouse antibodies to be captured as a ligand (25 μg/ml) were injected over reaction matrices at a flow rate of 5 μl/minute. The association and dissociation rate constants, kₒₙ (unit M⁻¹s⁻¹) and koff (unit s⁻¹) were determined under a continuous flow rate of 25 μl/minute. Rate constants were derived by making kinetic binding measurements at ten different antigen concentrations ranging from 10-200 nM. The equilibrium dissociation constant (unit M) of the reaction between antibodies and the target antigen was then calculated from the kinetic rate constants by the following formula: KD=koff/kₒₙ. Binding is recorded as a function of time and kinetic rate constants are calculated. In this assay, on-rates as fast as 10⁶M⁻¹s⁻¹ and off-rates as slow as 10⁻⁶s⁻¹ can be measured.
Background: Surface plasmon resonance follows binding to a sensor surface in real time, without labels.

B1: humanized anti-human IL-1β antibody 1B12.2 (antibody, V domains shown)
VH: EVQLQESGPGLVKPSETLSLTCTVSGFSLSDYGVSWIRQPPGKGLEWLGLIWGGGDTYYNSPLKSRLTISKDNSKSQVSLKLSSVTAADTAVYYCAKQRTLWGYDLYGMDYWGQGTLVTVSS
VL: ETTVTQSPSSLSASVGDRVTITCITSTDIDVDMNWYQQKPGKPPKLLISQGNTLRPGVPSRFSSSGSGTDFTFTISSLQPEDFATYYCLQSDNLPLTFGQGTKLEIK
notes: Cloned into IgG expression vectors and made as full-length humanized antibody; also called h1B12VH.1a/h1B12VL.1b; combination 2
For the molecule B1, the “Potency on Human IL-1β IC50 (pM); inhibition of IL-1β-induced IL-8 production by MRC-5 cells” value with human IL-1β [1] was determined as 146 pM. In the experiment with human IL-1β [2], the EC50 (commonly the concentration that produces a half-maximal response) stood at 0.0376 nM. Also, in the experiment with human IL-1β [3], the Kd (in general, the free concentration of one partner at which half of the binding sites on the other are occupied at equilibrium, for simple one-to-one binding) turned out to be 0.147 nM; the koff (as a rule, the first-order rate constant of dissociation) came out at 0.0009 s⁻¹; the kon – broadly, the rate constant with which the complex forms – was 6.13e+06 M⁻¹ s⁻¹.

B2: humanized anti-human IL-1β antibody 1B12.6 (antibody, V domains shown)
VH: EVQLVESGGGLVQPGGSLRLSCAVSGFTLSDYGVSWIRQAPGKGLEWLGLIWGGGDTYYNSPLKSRLTISKDNSKSTVYLQMNSLRAEDTAVYYCAKQRTLWGYDLYGMDYWGQGTLVTVSS
VL: B1 VL
As to B2, in the experiment with human IL-1β [1], the “Potency on Human IL-1β IC50 (pM); inhibition of IL-1β-induced IL-8 production by MRC-5 cells” value was 378 pM.

B3: humanized anti-human IL-1β antibody 1B12.3 (antibody, V domains shown)
VH: B1 VH
VL: DTVVTQSPAFLSVTPGEKVTITCITSTDIDVDMNWYQQKPDQPPKLLISQGNTLRPGVPSRFSSSGSGTDFTFTISSLEAEDAATYYCLQSDNLPLTFGQGTKLEIK
As to B3, the “Potency on Human IL-1β IC50 (pM); inhibition of IL-1β-induced IL-8 production by MRC-5 cells” value with human IL-1β [1] came to 303 pM.

B4: humanized anti-human IL-1β antibody 1B12.5 (antibody, V domains shown)
VH: B2 VH
VL: B1 VL with E1D, T3Q
notes: Cloned into IgG expression vectors and made as full-length humanized antibody; also called h1B12VH.2a/h1B12VL.1a; combination 5
As for B4, the “Potency on Human IL-1β IC50 (pM); inhibition of IL-1β-induced IL-8 production by MRC-5 cells” value with human IL-1β [1] was 319 pM. In addition, the EC50 with human IL-1β [2] worked out at 0.0488 nM. In the experiment with human IL-1β [3], this molecule registered a Kd of 0.231 nM, a koff of 0.00144 s⁻¹ and a kon of 6.24e+06 M⁻¹ s⁻¹.

B5: humanized anti-human IL-1β antibody 1B12.4 (antibody, V domains shown)
VH: B1 VH
VL: B3 VL with D1E, V3T
notes: Cloned into IgG expression vectors and made as full-length humanized antibody; also called h1B12VH.1a/h1B12VL.2b; combination 4
Turning to B5, the “Potency on Human IL-1β IC50 (pM); inhibition of IL-1β-induced IL-8 production by MRC-5 cells” value in the experiment with human IL-1β [1] is 597 pM. Moreover, the response with human IL-1β [2] was half-maximal at 0.0378 nM (EC50). In the experiment with human IL-1β [3], this molecule gave a Kd of 0.161 nM, a koff of 0.00097 s⁻¹ and a kon of 6.01e+06 M⁻¹ s⁻¹.

B6: humanized anti-human IL-1β antibody 1B12.8 (antibody, V domains shown)
VH: B2 VH
VL: B3 VL with D1E, V3T
notes: Cloned into IgG expression vectors and made as full-length humanized antibody; also called h1B12VH.2a/h1B12VL.2b; combination 8
As to B6, the “Potency on Human IL-1β IC50 (pM); inhibition of IL-1β-induced IL-8 production by MRC-5 cells” value in the experiment with human IL-1β [1] amounted to 484 pM. Also, in the experiment with human IL-1β [2], the EC50 is 0.0479 nM. In the experiment with human IL-1β [3], this molecule displayed a Kd of 0.23 nM, a koff of 0.00137 s⁻¹ and a kon of 5.94e+06 M⁻¹ s⁻¹.

B7: humanized anti-human IL-1β antibody 1B12.1 (antibody, V domains shown)
VH: B1 VH
VL: B1 VL with E1D, T3Q
For the molecule B7, in the experiment with human IL-1β [1], the “Potency on Human IL-1β IC50 (pM); inhibition of IL-1β-induced IL-8 production by MRC-5 cells” value was 151 pM.

B8: humanized anti-human IL-1β antibody 1B12.7 (antibody, V domains shown)
VH: B2 VH
VL: B3 VL
notes: Cloned into IgG expression vectors and made as full-length humanized antibody; also called h1B12VH.2a/h1B12VL.2a; combination 7
Take B8: the “Potency on Human IL-1β IC50 (pM); inhibition of IL-1β-induced IL-8 production by MRC-5 cells” value with human IL-1β [1] turned out to be 581 pM. In the experiment with human IL-1β [2], this molecule registered an EC50 of 0.0582 nM. In the experiment with human IL-1β [3], the Kd was determined as 0.284 nM, the koff was 0.00164 s⁻¹ and the kon is 5.76e+06 M⁻¹ s⁻¹.
